From the DeepSol protein solubility set

Test: soluble on expression in E. coli; label from the status in PepcDB or PDB records

Soluble on expression in E. coli, not soluble:
MGSDKIHHHHHHMTHRITILCDNTVGPVSGTLGEHGFAALVEWEGGSLLFDTGMGETLLRNAQRLGRNLAAVPRVVISHGHYDHGGGLWPLLRTCGSKTVLAHPGIFAPRYRVKDTGDPLSIGIPFDEAFLRGQGAHFDFNDRFREVGPGLYLTGEVPRTTAFETGDTGLFCDEAGCRPDPISDDQSLVIRTERGLVLLLGCCHAGVVNTARWALECTGETVVHTVIGGTHLGFCGREQLDETVKSLRELGVHKLVGSHCTGFAAAARLMHEFPGRFHPSAVGYTLEV
MGSDKIHHHHHHMTIHKLKEKVASTDFEQHSYAFRRFVLDELRVYIPFAAACFTTIDPESLLSTGTVMDKQLEPIHTLILENEHTGSDYNHYFQLVDSSPHIATLHDATGGNLTASQRYTRILAPAGFHDELRAALIDQGKCWGHLTLFHSKHHSPFSREEQQLVNSLLPAITKKVKRLTFQSTFSPSPNSSHFEAAIMIFSDTFELLSANEAAHSLLSLLREQEQLGEGTFPRPIETLCVKIKATSSSKEEGEIDRWSVCIPAANGQLLTLYASKLTSELLPEQYAVISQNTSPFERLGYSLLYYGLTQREIQIVEQIVNGYTTKQISSHLYISTHTVQDHLKSIFAKMNVNSRRELLSFLNQANK
MGSDKIHHHHHHMTINFNRIYVIQSLSKANGDELTGQQLFDDVLQYFNTKYGDKDARIFNVDNKKELLHALENIKSHCETDGIKPIIHFEIHGLEDKTGLSLNQEDVNWGDIYVKFIEINAASKWNLFITMGVCFGNYSMLLIRPSLPAPFTGILGSFEELFEWDLYIRYNAFYQELLNSLDFEKALEALHDSNPALPDDYRYINSEQTFKNVYQKYFDTQFSDVKIKERFNLTIAEEKISFTNRNIKRQFYSKFRTNLLNTKKEFFIKDKRKFFMFDVFPGHQYIYCVNWEPNYH
MGSDKIHHHHHHMTISIPDTLTTDNSEKYIVSIRLRSGGLSFSGYDPSAGGSFFYRETEFDRAVSFISSLKEFFFAHEFLTWTYKRINVICVSPEYSLVPDNYWGDGKEGRLLDFSFSTLELHCLTDTLKEQQAKLVFGVDEEVYEFCSRSLLHPFFSHYMTSLLTLWTKESSASLPRQMYVVIERKRMDVACYAQGKLLFVNSYPIDQSDDIVYYILYVWKQAGLDQEKDQLLLAGESSSRMRVLERLRAYLRHVKPVEIPSEAYLLGTDVTKAPMDLISLLICE
MGSDKIHHHHHHMTKDYVIEMRNITKIFGEFVANDHINLNVRRGEIHALLGENGAGKSTLMNMLAGLLEPTSGEIVINGQSVKIDSPSKAAQLGIGMVHQHFMLVDAFTVAENIILGSETTKGGVIDLKKAIAEIKELSAKYGLEVDPTAKVADISVGAQQRVEILKTLYRGADLLIFDEPTAVLTPAEIAELLKIMKALVEEGKSIILITHKLDEIRAVADSVTVIRRGKSIETVAVEGATNQDLAEWMVGRSVSFKTEKVEASPKEVILSIKDLVVNENRGIPAVKGLSLDVRAGEVVGIAGIDGNGQSELIQAITGLRKVKSGSITIKGEEVVGKTPRKITEMQVSHVPEDRHRDGLVLPMTVAENFALQTYYKEPISKNGILNYNIINEKARALMEEFDVRGASELVPIKALSGGNQQKAIIAREIDRNPDLFIVSQPTRGLDVGAIEYIRKRLIAERDKGKAVLVVSFELDEILDVSDRIAVIHDGVIHGIVEPAKTNKQELGVLMAGGHIEKGEEHA
MGSDKIHHHHHHMTKKKIGIGFGTWAWGNKLVWDYKAETDDILLKKTFFDAINGGLDLIDSADSYGTGSLFGQSEKLIGDFLEELPKRKLKKVTIATKLAPFPWRIGRNGLDNAFQESNQRLKGNMTRVQLHWSTYRYAPWQEEQLLNGLGDLYEEGLIKEIGLSNTGPKRLNFLFQKLKKRGIKIKSIQMQLSLLTKPSLEDENIKIICDENEIEYLAYSPLGLGILTVPPNQSPKPTTFLRKSLYQRILPKTIELRTLLTHIGKKYSASQAEVALNWVRSHGAKPIVGIRNPNQAKDAISALNWSLTKSEKQKLDFCRNACLANMPLNPFTSP
MGSDKIHHHHHHMTKMLRTYKFRIYPTREQEEKLAKHFGHTRFVYNFFLNYANIIYRVMERPTYYNEWASVLVKLKKTNKYSWLNEVNSQALQQSLKDLERAFKNFFKKQAGYPKFKKKKFSRQTFRIPQHIQLYIKEDNPKYGCIFVPKFKEGIKVRLHRKLPKDGKIKQATFIKTATNKYYAAIVFEVQDAEVQNTSTGILGIDLGIKDTITLSDGKKYKMPDLSKYERQIKRLHRRLSRKQRGSKNWEKARLCLAKLYEKIVNIKNDWLHKITHDLVSESQAGKIVVEDLNIKGMVQNHRLARHIHMQSWRRFLELLEYKAKRCGIEVIKANRYYPSSQMCSECGYINKEVKDLSVREWTCPVCGAHHDRDVNAAKNLVRYGLMLSIGREPSEFTPVDSALAAEPERGLRAITG
MGSDKIHHHHHHMTKPPTLRPRFWETVPLDRMTPSEWEALCDGCGKCCLNKIEFEDTGEVAFTRIACRLLDGDSCRCSNYEIRRQFVPDCVQLSPATLPKIVYWMPRTCAYRLLHEGKSLPGWHYLLTGDRNSVHDAGASVQGWTVPEFEVAEEDWEDHIIEETP
MGSDKIHHHHHHMTNEYEHLNAIQKIGLSILKEIIAICKRHDLTYYVYGGTLLGAIRHQGFIPWDDDVDIAMSRKDFEKLKQYQNEFPQYMFLDTIQQKGHQWTAAHVVDTRYKLEVGKGMKKATMSVWVDILIIDGVPNPGTFKYKIFSAAYLTARLLYKFSNFSNEVDLEKDRSAIETFFISFARITHIEKVINQHWAGCFIDWISRRYDLDKCEYGATLGGPQKMGETQPKYWFGKGKELLFEDIIVNGMEETENFLTKFYGPNYMTPPPLDKRNQHNVRLVEKIV
MGSDKIHHHHHHMTNIGETIHQIRLSKGLTQQEVYSGIISRSFASRFESGANDIGASKLFAILDNLAISADELRFIHQNYQPSAYDQALWTIRHAYETLNFPALATWIREHRHSPHAYEQLIASYASILMLSYDHRSIGITTTTQPAFDHLRQAKTWTLQELKLVPVLIPIIASIDGLAALTPLTTRMAANCASYQTAWGDPFHVSNDLLDFYGSLFQTKLNFHDFQSAQNLKTKFTAIDSHQLNWDGRLSQQFWLGIWNLYFGDWQIGNQLLDEVSVLETHHHPRIDNTLFAIRNVRTKQAQTYRQSHQSHKHL
MGSDKIHHHHHHMTNIILICVDQMRADTIRILGNPSIITPNLDALSLNSVVFSNHFSAGSPCSPARTSLLTGQYPATHGSITKNHRLKSTTNLALEIKKIGLSSTLFGFTDTVIPPYIQEKEGIMPGFDVQCYMNLHNIGLSGWAKELQKKGYHVLPNIMDIYRAEKAPYNYHDSDTAFLTDQVINYVASQGQEFGFIHLSYFRPHPPFIAPAPYSEYYPEVNCQKPEVDLETFLSMHPFHECLFHQLYKNTFNNLSYKQIESILTERFSRDKRAYYGLITELDYHLGRLITFLKDKGVYDETLLIFTSDHGELLGDKWLYEKGGYFDQSFHVPLLIKPPKALRSKQEGKIVDSFTSSIDLMPTILDIINAPIPESVEGLSLAELLSDGKNDSTRKDIIYEHYTTLPTKQLNRTLTIKDESFKYVYCSQFEHLLFDLKSDPDELKNLATESKHLNTVAYYQDRLRAEKLL
MGSDKIHHHHHHMTPDSSPSSVDDPLFESGHRIFANKDLLKIGHVPEADRIVGRDEEISKLAKRLNGAVHGYSPENVMIYGKTGTGKSLVSKHVCQRAQNAAQDGVEIGTAYIDCAEDNTETQAISSLAAKLNDESSTGISVPHTGLSTSKYYKLLWKTLDAQFDSVIIILDEIDLMNDDSVLMKLSRAEEAGKIDCSVGVIAISNKIQYVDNVNERVKSSFQHKELFFKPYDANQLREIMFNREDAFQDGVLSEDVIPLSAAFAAQEHGDARKAIDILRHAGEVAYEAGAELVTEEHVRQAQQHAEKDRFRELVNGAPTQAKAALLALTELSVNSNDDAFLTSRVYDQYEHICNHLDMDILSVRRFRDILKEQAFLGVVEIEKINKGSAGGIHLQNRLIEDSQVVRETILEDSRMQDWTRE
MGSDKIHHHHHHMTQCPLVSISCLTYNHAPYLRQCLDGFVMQITSFPIEILIYDDASGDGTQNIIEEYQKKYPDIIKPIYQTENQYSKGVKVGFVYNYSRAKGEYIAFCEGDDYWTDPYKLQKQIDFLECYSDYVICSHRYRICLKEEKVMNDEIKPIGDLSDGMSFDLSFLIRGGWLFQPLSVVYRKSALDLDTYSKYAIYIDVALFYAILKNGKGYCMPDVMGVYRIHEKGVWSGLDLNHQRIFSLKAREAIYDVEKTDEAAMFILSQFSRPMGRFLVVKECSMFMRITKILISHFGLRFVLRMWFDRLFLNKKLCVNEFYQIKDFCKRKKNG
MGSDKIHHHHHHMTQDFSEIFAKYEALVADVDNVFKRVQEAHPECVTCEKGCSDCCYAVFDLSLVEAMYLNHRFGQKFSFGPERSVIVERADETDRKLVKLKRQAHRDVQNGRDAEEILQDMGRVRVRCPLLGETDGCELYEYRPITCRLYGIPTAIGGKAHSCGKSAFLAGKQYPTVNIDRIHERLAQLSLEIRDAVHSRFSELHTVLVPVSMALLTTYDDAYLGAGATAKGNE
MGSDKIHHHHHHMTQLAPDSSIINAQACLSLDEAYEACRKETAQWAKTFYLGTMLLPSIKRRAIWAIYVWCRRTDELMDSAEAQTRPVSELANRLDQWEERTRAMFAGQVLDGLDAVMADTLERFPQSIQPYLDMIEGQRMDLNQHRYATFQQLELYCYRVAGTVGLMTQHVMGLDPAYTTAPWSSSPETSDAAIALGIANQLTNILRDVGEDRGRGRIYIPQEDLDRFGYSEADLMAGRLNSAWKDLMAFQLERAREWFARSEAGVRWLSQDARWPVWASLRLYRGILDSIERLDYDVFNNRAYVSRWMKLVDLPLSYLMAQAR
MGSDKIHHHHHHMTQLLTKIRRKKIHKGLLLYRLFQQLPVQKNLVLFESFLGRGYSDNPKALYLTLQKQRPELELVWIFAKEPNAAVKAACPNWVLRNSPKYYYLMARAQYWIFNTRQPLSLKKRRETMYLQTWHGTPLKRLGLDMDEVHMPGTNTEQYKKNFSAQAKEWNYLLSPNLYSSAIFKRAFDFRGLLLETGYPRNDLLYAPDRQQQAGQIKQSLRLPPGKKVILYAPTWRDDEFVTKGQYRFNLKLDLKQIQSRLGDDYIVLLRMHYLIAEHLDLTAFDGFAYDVSAYGDIAELYLISDLLITDYSSVFFDYAHLNRPMLFFTYDLEKYASILRGFYFDFEAVVPGPLLKESDQVIDYIEDIATQSKQYEEKYTAFQERFCSLDDGKASQRVVDALFK
MGSDKIHHHHHHMTQTPKPPLTIYLAAPRGFCAGVDRAIKIVEMALEKWGAPVFVRHEIVHNKYVVDDLKAKGAVFVEELSDCPDDRPVIFSAHGVPKSVPQAAAARQMVYVDATCPLVSKVHIEAQRHSDNGLQMVMIGHKGHPETIGTMGQLPDGEVLLVETVEDVATVEVRDPSRLAFVTQTTLSVDDTIEIVEALTTRFPAIVGPHKEDICYATTNRQEAVKAMAPKAEAMLVVGAPNSSNSKRLVEVGSRAGCAYSQLVQRAADIDWRALGDIKTLGITAGASAPEVLIEEVIQAFEDRFDVTRELVETAVENVEFKVPRVLRETA
MGSDKIHHHHHHMTRGIYNAAMGMLVDMAKLDRIANDLANVDTAGYKQDREAFRAYLRREVFRQEPNPVESRTKKVPIGPLEYATVLDEVRTDLSQGPVEETDVPYHLAINGEGFFRIEFNGGEYYTRNGEFTVNSEGYIVTNYGGYLLDENGERVRFFDDFTVDEEGYVRDAYGNIVTRIGVYNLENPEKFGNTLFTGENPSPSENFRIMQGYVEKSNVDALKAMVDMISAMRHYELSQRAVTVNDELNGKLINSLASLK
